Assay results published in publication PMC12319226 (Frontiers in Bioinformatics, 2025).
Where a chain is given by its changes, count along the chain named.

T1: fHbp m002256 (Neisseria meningitidis, engineered fHbp …, chimera)
T1 chain: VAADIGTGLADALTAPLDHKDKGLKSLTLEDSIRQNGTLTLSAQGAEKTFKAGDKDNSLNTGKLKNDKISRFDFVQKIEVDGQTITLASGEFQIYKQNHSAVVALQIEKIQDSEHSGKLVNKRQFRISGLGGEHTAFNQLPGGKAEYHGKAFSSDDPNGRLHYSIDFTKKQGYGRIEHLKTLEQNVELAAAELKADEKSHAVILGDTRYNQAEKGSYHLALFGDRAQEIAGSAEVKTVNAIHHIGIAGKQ

T2: fHbp m002281 (Neisseria meningitidis, engineered fHbp …, chimera)
T2 chain: T1 chain with T237I, A240G

T3: fHbp m002404 (Neisseria meningitidis fHbp v3.28, …, chimera)
T3 chain: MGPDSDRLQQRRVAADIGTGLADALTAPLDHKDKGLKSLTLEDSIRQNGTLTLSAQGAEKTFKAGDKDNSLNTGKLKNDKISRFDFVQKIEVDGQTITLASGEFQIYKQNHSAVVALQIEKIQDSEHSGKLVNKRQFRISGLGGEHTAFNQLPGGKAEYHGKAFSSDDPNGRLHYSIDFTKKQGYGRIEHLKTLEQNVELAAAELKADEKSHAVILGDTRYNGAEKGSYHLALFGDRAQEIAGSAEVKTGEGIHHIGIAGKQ

T4: fHbp m002419 (Neisseria meningitidis fHbp v3.28, …, chimera)
T4 chain: T3 chain with G250V, E251V

T5: fHbp m001039 (Neisseria meningitidis fHbp v3.28, …, point mutant)
T5 chain: T3 chain with Y221L, N222G, G223Q, G250V, G252A

T6: fHbp m001040 (Neisseria meningitidis fHbp v3.28-based …, point mutant)
T6 chain: T3 chain with Y221L, N222G, G223Q, G250V, E251N

T7: fHbp m001118 (Neisseria meningitidis fHbp v3.28-based …, point mutant)
T7 chain: T3 chain with Y221L, N222G, G223S, G250V

T8: fHbp m001211 (Neisseria meningitidis fHbp v3.28-based …, point mutant)
T8 chain: T3 chain with Y221L, N222G, G250D, E251N

T9: fHbp m001660 (Neisseria meningitidis, fHbp …, point mutant)
T9 chain: T3 chain with Y221L, T249S, G250V, G252A

B1: mAb 1E6 (human) (antibody, V domains shown)
VH: EVQLVQSGAEVKKPGSSVKVSCKASGGTVIDYPITWVRQAPGQGLEWVGGFVPLFRTSNYGQKFQGRVTITADKSTSTASMELNSLTSEDTAIYYCARGDTAMGPFDYWGQGTLVTVSS
VL: SYVLTQPPSLSVAPGKTATLTCGGNNIAGKTVHWYQQRPGQAPVLVISYDSDRPSGIPERFSGSNSANTATLTISRVEAGDEADYYCQVWDRNSDHWVFGGGTKLTVL
notes: source: Expi293, purified (MabSelect SuRe, SEC); copies: 2 + 2
B2: chimeric antibody h12C1 (antibody, V domains shown)
VH: QVQLQESGPELVKPGASVKISCKASGYSFSDYNMSWVKQSNGKSLEWIGIIDPKYGTINYNQKFKGKATLTVDQASSTAYMQLNSLTSEDSAVYYCVRDYYGSSYFDYWGQGTTLTVSS
VL: DIVLTQSPSSIYASLGERVTLTCKASQDIHNYLNWFQQKPGKSPKTLIYRANRLVDGVPSRFSGGGSGQDYSLTISSLEFEDIGIYYCLQYDEFPPTFGGGTRLEIK
notes: also called humanized 12C1; source: Expi293, purified (MabSelect SuRe, SEC); copies: 2 + 2

Columns and labels:
Experiment in all cases: BLI
Conditions in all cases: both partners purified
fHbp m002256 = biological target: T1, fHbp m002256
fHbp m002281 = biological target: T2, fHbp m002281
fHbp m002404 = biological target: T3, fHbp m002404
fHbp m002419 = biological target: T4, fHbp m002419
fHbp m001039 = biological target: T5, fHbp m001039
fHbp m001040 = biological target: T6, fHbp m001040
fHbp m001118 = biological target: T7, fHbp m001118
fHbp m001211 = biological target: T8, fHbp m001211
fHbp m001660 = biological target: T9, fHbp m001660

| Binder | Kd (fHbp m002256) [nM] | koff (fHbp m002256) [s⁻¹] | kon (fHbp m002256) [M⁻¹ s⁻¹] | Kd (fHbp m002281) [nM] | koff (fHbp m002281) [s⁻¹] | kon (fHbp m002281) [M⁻¹ s⁻¹] | Kd (fHbp m002404) [nM] | koff (fHbp m002404) [s⁻¹] | kon (fHbp m002404) [M⁻¹ s⁻¹] | Kd (fHbp m002419) [nM] | koff (fHbp m002419) [s⁻¹] | kon (fHbp m002419) [M⁻¹ s⁻¹] | Kd (fHbp m001039) [nM] | koff (fHbp m001039) [s⁻¹] | kon (fHbp m001039) [M⁻¹ s⁻¹] | Kd (fHbp m001040) [nM] | koff (fHbp m001040) [s⁻¹] | kon (fHbp m001040) [M⁻¹ s⁻¹] | Kd (fHbp m001118) [nM] | koff (fHbp m001118) [s⁻¹] | other results |
| --- | --- | --- | --- | --- | --- | --- | --- | --- | --- | --- | --- | --- | --- | --- | --- | --- | --- | --- | --- | --- | --- |
| B1 | 0.23 | 0.000106 | 460600 ± 4450 | 0.217 | 0.0001 | 462500 ± 3370 | 0.429 | 0.000144 | 336700 ± 1540 | 0.191 | 5.3e-05 | 277200 ± 2090 | 0.655 | 0.00031 | 473100 ± 1890 | 0.594 | 0.000266 | 447100 ± 3340 | 0.235 | 8.5e-05 | kon (fHbp m001118): 361600 ± 2210 M⁻¹ s⁻¹; Kd (fHbp m001211): 0.507 nM; koff (fHbp m001211): 0.000219 s⁻¹; kon (fHbp m001211): 431400 ± 2210 M⁻¹ s⁻¹; Kd (fHbp m001660): 0.706 nM; koff (fHbp m001660): 0.000209 s⁻¹; kon (fHbp m001660): 296000 ± 3450 M⁻¹ s⁻¹ |
| B2 | 43.6 | 0.0102 | 235000 ± 5060 | 34.9 | 0.0105 | 300000 ± 6700 | 125 | 0.01534 ± 0.000107 | 123000 ± 5460 | 0.237 | 3.39e-05 | 143000 ± 1520 | 65.7 | 0.0146 | 223000 ± 3080 | 0.523 | 0.000192 | 368300 ± 1820 | 42 | 0.0103 | kon (fHbp m001118): 245000 ± 3100 M⁻¹ s⁻¹; Kd (fHbp m001211): 19.8 nM; koff (fHbp m001211): 0.00753 s⁻¹; kon (fHbp m001211): 381300 ± 3730 M⁻¹ s⁻¹; Kd (fHbp m001660): 139 nM; koff (fHbp m001660): 0.0649 ± 0.00238 s⁻¹; kon (fHbp m001660): 466000 ± 71500 M⁻¹ s⁻¹ |
